Laboratory results published in paper PMC11413682.

B1: SARS-CoV-2 ORF10 N5 peptide [SARS-CoV-2] / CUL2^ZYG11B (residues 490–728) [human] (parent)
chain 1: GYINV
chain 2: ELFIVRQLLQIVKQKTNQNSVDTTLKFTLSALWNLTDESPTTCRHFIENQGLELFMRVLESFPTESSIQQKVLGLLNNIAEVQELHSELMWKDFIDHISSLLHSVEVEVSYFAAGIIAHLISRGEQAWTLSRSQRNSLLDDLHSAILKWPTPECEMVAYRSFNPFFPLLGCFTTPGVQLWAVWAMQHVCSKNPSRYCSMLIEEGGLQHLYNIKDHEHTDPHVQQIAVAILDSLEKHIVR

Variants of: B1
Test: ITC
Details: with CUL2^ZYG11B (residues 490–728) [human]

Variant | Kd [µM]
chain 1 G1S | 13.2
